Measurements reported in the supplement of paper PMC11316812.
± gives the standard deviation of the averaged measurements.

Tests used:
[1] = system: hTERT-HMEC; test: percentage of EdU-negative (G0-arrested) nuclei per well, 72 h; higher = more G0 arrest; conditions: reference: sequence is the full UniProt precursor, the tested protein was the secreted form or ectodomain
[2] = system: MCF7; test: as above; conditions: reference: sequence is the full UniProt precursor, the tested protein was the secreted form or ectodomain
[3] = protein concentration 0.0225 µM
[4] = protein concentration 0.03125 µM
[5] = protein concentration 0.3125 µM
[6] = protein concentration 0.0205 µM
[7] = protein concentration 0.00925 µM
[8] = protein concentration 0.0925 µM
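Also: secreted proteins added to cultured cells, EdU pulse at the end, nuclei found by Hoechst imaging, EdU status from nuclear versus surrounding ring intensity ratio, PBS as neutral control.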

MLPPWTLGLLLLATVRGKEVCYGQLGCFSDEKPWAGTLQRPVKLLPWSPEDIDTRFLLYTNENPNNFQLITGTEPDTIEASNFQLDRKTRFIIHGFLDKAEDSWPSDMCKKMFEVEKVNCICVDWRHGSRAMYTQAVQNIRVVGAETAFLIQALSTQLGYSLEDVHVIGHSLGAHTAAEAGRRLGGRVGRITGLDPAGPCFQDEPEEVRLDPSDAVFVDVIHTDSSPIVPSLGFGMSQKVGHLDFFPNGGKEMPGCKKNVLSTITDIDGIWEGIGGFVSCNHLRSFEYYSSSVLNPDGFLGYPCASYDEFQESKCFPCPAEGCPKMGHYADQFKGKTSAVEQTFFLNTGESGNFTSWRYKISVTLSGKEKVNGYIRIALYGSNENSKQYEIFKGSLKPDASHTCAIDVDFNVGKIQKVKFLWNKRGINLSEPKLGASQITVQSGEDGTEYNFCSSDTVEENVLQSLYPC
percentage of EdU-negative [1, 3]: 4.69 ± 0.62%
percentage of EdU-negative ([1]; protein concentration 0.225 µM): 5.7 ± 0.076%
percentage of EdU-negative [2, 3]: 25.9 ± 0.35%
percentage of EdU-negative ([2]; protein concentration 0.225 µM): 26.41 ± 0.1%

MLPRVGCPALPLPPPPLLPLLLLLLGASGGGGGARAEVLFRCPPCTPERLAACGPPPVAPPAAVAAVAGGARMPCAELVREPGCGCCSVCARLEGEACGVYTPRCGQGLRCYPHPGSELPLQALVMGEGTCEKRRDAEYGASPEQVADNGDDHSEGGLVENHVDSTMNMLGGGGSAGRKPLKSGMKELAVFREKVTEQHRQMGKGGKHHLGLEEPKKLRPPPARTPCQQELDQVLERISTMRLPDERGPLEHLYSLHIPNCDKHGLYNLKQCKMSLNGQRGECWCVNPNTGKLIQGAPTIRGDPECHLFYNEQQEARGVHTQRMQ
percentage of EdU-negative [1, 4]: 4.88 ± 1%
percentage of EdU-negative [1, 5]: 6.96 ± 0.2%
percentage of EdU-negative [2, 4]: 27.7 ± 2.4%
percentage of EdU-negative [2, 5]: 31.1 ± 3.1%

MLPWLLVFSALGIQAWGDSSWNKTQAKQVSEGLQYLFENISQLTEKGLPTDVSTTVSRKAWGAEAVGCSIQLTTPVNVLVIHHVPGLECHDQTVCSQRLRELQAHHVHNNSGCDVAYNFLVGDDGRVYEGVGWNIQGVHTQGYNNISLGFAFFGTKKGHSPSPAALSAMENLITYAVQKGHLSSSYVQPLLGKGENCLAPRQKTSLKKACPGVVPRSVWGARETHCPRMTLPAKYGIIIHTAGRTCNISDECRLLVRDIQSFYIDRLKSCDIGYNFLVGQDGAIYEGVGWNVQGSSTPGYDDIALGITFMGTFTGIPPNAAALEAAQDLIQCAMVKGYLTPNYLLVGHSDVARTLSPGQALYNIISTWPHFKH [Q96LB8]
percentage of EdU-negative [1, 3]: 5.75 ± 0.76%
percentage of EdU-negative ([1]; protein concentration 0.225 µM): 6.41 ± 1.2%
percentage of EdU-negative [2, 3]: 24.7 ± 0.28%
percentage of EdU-negative ([2]; protein concentration 0.225 µM): 25 ± 1.5%

MLPWTALGLALSLRLALARSGAERGPPASAPRGDLMFLLDSSASVSHYEFSRVREFVGQLVAPLPLGTGALRASLVHVGSRPYTEFPFGQHSSGEAAQDAVRASAQRMGDTHTGLALVYAKEQLFAEASGARPGVPKVLVWVTDGGSSDPVGPPMQELKDLGVTVFIVSTGRGNFLELSAAASAPAEKHLHFVDVDDLHIIVQELRGSILDAMRPQQLHATEITSSGFRLAWPPLLTADSGYYVLELVPSAQPGAARRQQLPGNATDWIWAGLDPDTDYDVALVPESNVRLLRPQILRVRTRPGEAGPGASGPESGAGPAPTQLAALPAPEEAGPERIVISHARPRSLRVSWAPALGSAAALGYHVQFGPLRGGEAQRVEVPAGRNCTTLQGLAPGTAYLVTVTAAFRSGRESALSAKACTPDGPRPRPRPVPRAPTPGTASREP [Q6PCB0]
percentage of EdU-negative [1, 6]: 5.62 ± 0.91%
percentage of EdU-negative ([1]; protein concentration 0.205 µM): 5.75 ± 1.2%
percentage of EdU-negative [2, 6]: 26.5 ± 2.2%
percentage of EdU-negative ([2]; protein concentration 0.205 µM): 27.6 ± 0.87%

MLQGPGSLLLLFLASHCCLGSARGLFLFGQPDFSYKRSNCKPIPANLQLCHGIEYQNMRLPNLLGHETMKEVLEQAGAWIPLVMKQCHPDTKKFLCSLFAPVCLDDLDETIQPCHSLCVQVKDRCAPVMSAFGFPWPDMLECDRFPQDNDLCIPLASSDHLLPATEEAPKVCEACKNKNDDDNDIMETLCKNDFALKIKVKEITYINRDTKIILETKSKTIYKLNGVSERDLKKSVLWLKDSLQCTCEEMNDINAPYLVMGQKQGGELVITSVKRWQKGQREFKRISRSIRKLQC [Q96HF1]
percentage of EdU-negative [1, 7]: 5.51 ± 0.23%
percentage of EdU-negative [1, 8]: 5.34 ± 0.013%
percentage of EdU-negative [2, 7]: 21.9 ± 2.5%
percentage of EdU-negative [2, 8]: 26.3 ± 1.9%

MLQGTCSVLLLWGILGAIQAQQQEVISPDTTERNNNCPEKTDCPIHVYFVLDTSESVTMQSPTDILLFHMKQFVPQFISQLQNEFYLDQVALSWRYGGLHFSDQVEVFSPPGSDRASFIKNLQGISSFRRGTFTDCALANMTEQIRQDRSKGTVHFAVVITDGHVTGSPCGGIKLQAERAREEGIRLFAVAPNQNLKEQGLRDIASTPHELYRNDYATMLPDSTEIDQDTINRIIKVMKHEAYGECYKVSCLEIPGPSGPKGYRGQKGAKGNMGEPGEPGQKGRQGDPGIEGPIGFPGPKGVPGFKGEKGEFGADGRKGAPGLAGKNGTDGQKGKLGRIGPPGCKGDPGNRGPDGYPGEAGSPGERGDQGGKGDPGRPGRRGPPGEIGAKGSKGYQGNSGAPGSPGVKGAKGGPGPRGPKGEPGRRGDPGTKGSPGSDGPKGEKGDPGPEGPRGLAGEVGNKGAKGDRGLPGPRGPQGALGEPGKQGSRGDPGDAGPRGDSGQPGPKGDPGRPGFSYPGPRGAPGEKGEPGPRGPEGGRGDFGLKGEPGRKGEKGEPADPGPPGEPGPRGPRGVPGPEGEPGPPGDPGLTECDVMTYVRETCGCCDCEKRCGALDVVFVIDSSESIGYTNFTLEKNFVINVVNRLGAIAKDPKSETGTRVGVVQYSHEGTFEAIQLDDERIDSLSSFKEAVKNLEWIAGGTWTPSALKFAYDRLIKESRRQKTRVFAVVITDGRHDPRDDDLNLRALCDRDVTVTAIGIGDMFHEKHESENLYSIACDKPQQVRNMTLFSDLVAEKFIDDMEDVLCPDPQIVCPDLPCQTELSVAQCTQRPVDIVFLLDGSERLGEQNFHKARRFVEQVARRLTLARRDDDPLNARVALLQFGGPGEQQVAFPLSHNLTAIHEALETTQYLNSFSHVGAGVVHAINAIVRSPRGGARRHAELSFVFLTDGVTGNDSLHESAHSMRKQNVVPTVLALGSDVDMDVLTTLSLGDRAAVFHEKDYDSLAQPGFFDRFIRWIC
percentage of EdU-negative ([1]; protein concentration 0.013 µM): 6.76 ± 1.4%
percentage of EdU-negative ([1]; protein concentration 0.13 µM): 50.9 ± 9.9%
percentage of EdU-negative ([2]; protein concentration 0.013 µM): 27.1 ± 0.99%
percentage of EdU-negative ([2]; protein concentration 0.13 µM): 27.7 ± 1.8%

MLQLWKLVLLCGVLTGTSESLLDNLGNDLSNVVDKLEPVLHEGLETVDNTLKGILEKLKVDLGVLQKSSAWQLAKQKAQEAEKLLNNVISKLLPTNTDIFGLKISNSLILDVKAEPIDDGKGLNLSFPVTANVTVAGPIIGQIINLKASLDLLTAVTIETDPQTHQPVAVLGECASDPTSISLSLLDKHSQIINKFVNSVINTLKSTVSSLLQKEICPLIRIFIHSLDVNVIQQVVDNPQHKTQLQTLI [Q96DR5]
percentage of EdU-negative [1, 3]: 4.84 ± 0.42%
percentage of EdU-negative ([1]; protein concentration 0.225 µM): 4.68 ± 0.1%
percentage of EdU-negative [2, 3]: 27.4 ± 1.7%
percentage of EdU-negative ([2]; protein concentration 0.225 µM): 27.4 ± 1.2%
